Reference: IntAct's records for PubMed 17255092

B1: SWI/SNF complex subunit SMARCC1 (Mus musculus), P97496 (parent)
chain: MAATAGGGPGAAAGAVGAGGAAAASGLAVYRRKDGGPASKFWESPDTVSQLDSVRVWLGKHYKKYVHADAPTNKTLAGLVVQLLQFQEDAFGKHVTNPAFTKLPAKCFMDFKAGGTLCHILGAAYKYKNEQGWRRFDLQNPSRMDRNVEMFMNIEKTLVQNNCLTRPNIYLIPDIDLKLANKLKDIIKRHQGTFTDEKSKASHHIYPYPSSQEDEEWLRPVMRRDKQVLVHWGFYPDSYDTWVHSNDVDAEIEDAPIPEKPWKVHVKWILDTDVFNEWMNEEDYEVDENRKPVSFRQRISTKNEEPVRSPERRDRKASANSRKRKPSPSPPPPTATESRKKSGKKGQASLYGKRRSQKEEDEQEDLTKDMEDPTPVPNIEEVVLPKNVNPKKDSENTPVKGGTVADLDEQDEEAVTTGGKEDEDPSKGDPSRSVDPGEDNVTEQTNHIIIPSYASWFDYNCIHVIERRALPEFFNGKNKSKTPEIYLAYRNFMIDTYRLNPQEYLTSTACRRNLTGDVCAVMRVHAFLEQWGLVNYQVDPESRPMAMGPPPTPHFNVLADTPSGLVPLHLRSPQVPAAQQMLNFPEKNKEKPIDLQNFGLRTDIYSKKTLAKSKGASAGREWTEQETLLLLEALEMYKDDWNKVSEHVGSRTQDECILHFLRLPIEDPYLENSDASLGPLAYQPVPFSQSGNPVMSTVAFLASVVDPRVASAAAKAALEEFSRVREEVPLELVEAHVKKVQEAARASGKVDPTYGLESSCIAGTGPDEPEKLEGSEEEKMETDPDGQQPEKAENKVENESDEGDKIQDRENEKNTEKEQDSDVSEDVKPEEKENEENKELTDTCKERESDAGKKKVEHEISEGNVATAAAAALASAATKAKHLAAVEERKIKSLVALLVETQMKKLEIKLRHFEELETIMDREKEALEQQRQQLLTERQNFHMEQLKYAELRARQQMEQQQQHGQTPQQAHQHTGGPGMAPLGATGHPGMMPHQQPPPYPLMHHQMPPPHPPQPGQIPGPGSMMPGQPMPGRMIPAVAANIHPTGSGPTPPGMPPMPGNILGPRVPLTAPNGMYPPPPQQQQPPPPADGVPPPPAPGPPASATP

Variants of: B1
Conditions: with snf5_mouse Smarcb1, Q9Z0H3
Chain of snf5_mouse Smarcb1, Q9Z0H3 (Q9Z0H3 whole entry): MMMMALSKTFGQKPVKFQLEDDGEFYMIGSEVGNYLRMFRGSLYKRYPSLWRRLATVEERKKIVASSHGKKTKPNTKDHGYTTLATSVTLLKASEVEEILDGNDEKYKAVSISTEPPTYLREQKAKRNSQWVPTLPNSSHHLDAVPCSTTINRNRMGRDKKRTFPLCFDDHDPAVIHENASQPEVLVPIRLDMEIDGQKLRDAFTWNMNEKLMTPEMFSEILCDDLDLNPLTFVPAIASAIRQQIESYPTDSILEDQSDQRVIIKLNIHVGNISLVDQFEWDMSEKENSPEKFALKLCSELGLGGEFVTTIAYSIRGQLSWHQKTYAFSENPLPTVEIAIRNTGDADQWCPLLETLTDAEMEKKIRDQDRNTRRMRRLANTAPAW

effect of a mutation on the interaction | Variant
decreasing interaction | N535A
decreasing interaction | L533A
disrupting interaction | L533A;N535A

Variants of: B1
Conditions: with snf5_mouse Smarcb1, Q9Z0H3
Remark: another data set of the same source

effect of a mutation on the interaction | Variant
disrupting interaction strength | L533A;N535A
